Measurements from publication PMC6465933, “Direct Binding of the Flexible C-Terminal Segment of Periaxin to β4 Integrin Suggests a Molecular Basis for CMT4F” (Frontiers in Molecular Neuroscience, 2019).

T1: β4 integrin FNIII-3 (Homo sapiens, UniProt P16144)
T1 chain: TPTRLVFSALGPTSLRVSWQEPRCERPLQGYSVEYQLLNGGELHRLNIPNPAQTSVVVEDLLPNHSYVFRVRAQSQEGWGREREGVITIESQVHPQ

B1: His-tagged rat β4-FNIII-3 (β4 integrin amino acids 1512–1602) (domain or fragment, UniProt Q64632 1512-1602, looked up)
chain: PDTPTRLVFSALGPTSLKVSWQEPQCDRALLGYSVEYQLLNGGEMHRLNIPNPGQTSVVVEDLLPNHSYVFRVRAQSQEGWGREREGVITI
notes: β4 integrin, third cytoplasmic fibronectin type III domain, rat, amino acids 1512-1602, synthetic gene in pJ401; No tag cleavage is described for this protein; the His tag is partly seen in the crystal structure; also called His-β4-FNIII-3; rFNIII-3; source: E. coli BL21(DE3), purified (Ni-NTA, SEC)
B2: periaxin C-terminal segment (protein)
chain: SGRRGRVRVRLPRVGLAAPSKASRGQEGDAAPKSPVREKSPKFRFPRVSLSPKARSGSGDQEEGGLRVRLPSVGFSETGAPGPARMEGAQAAAV
B3: rat L-PRX C-terminal region (amino acids 1036–1383) (domain or fragment, UniProt Q63425 1036-1383, looked up)
chain: EVELVTPGAQETEKVTSGVKPSGLQVSTTRQVVAEGQEGAQRVSSLGISLPQVELASFGEAGPEIAAPSAEGTVGSRIQVPQVMLELPGTQVAGGDLLVGEGIFKMPTVTVPQLELDVGLGHEAQAGETAKSEGGLKLKLPTLGAGGKGEGAEAQSPEAQHTFHISLPDVELTSPVSSHAEYQVVEGDGDGGHKLKVRLPLFGLARAKEGIETGEKVKSPKLRLPRVGFSQSESASGEGSPSPEEEEEGSGEGASGRRGRVRVRLPRVGLASPSKGSKGQEGDAASKSPVGEKSPKFRFPRVSLSPKARSGSKDREEGGFRVRLPSVGFSETAAPGSARIEGTQAAAI
notes: After TEV cleavage an additional N-terminal Ser residue is left; also called rPRX-C; source: E. coli BL21(DE3), purified (Ni-NTA in urea, TEV cleavage, second Ni-NTA, SEC)

How the values were obtained:
[1] = molecular target: B3; assay: ITC; 680 μM β4-FNIII-3 titrated into 68 μM PRX-C, 25°C, 20 mM HEPES, 150 mM NaCl, pH 7.5; conditions: both partners purified
β4 integrin FNIII-3 = molecular target: T1, β4 integrin FNIII-3; assay: ITC
[2] = molecular target: B1; assay: SEC-MALS; with QELS; equimolar complex (145 μM each), Superdex 200 increase 3.2/300GL, 20 mM Tris, 150 mM NaCl, pH 7.4, ambient temperature; conditions: both partners purified

Binder: B1
- Kd [1]: 1700 ± 100 nM
- dH [1]: 6.2 ± 0.06 kcal/mol
- stoichiometry N [1]: ~1

Binder: B2
- Kd (β4 integrin FNIII-3): 1700 nM

Binder: B3
- stoichiometry N [2]: 1
